These results are taken from patent US20090022728A1 (RINAT NEUROSCIENCE, published 2009).

Like-named read-outs stand apart in the source and are kept apart here.

The target of assay [1] is T1, biotinylated Aβ1-40 peptide (biotinylated (N-biotinylated in Example 7)).
T1 construct: captured on streptavidin (SA) chip; also called Biotinylated Aβ peptide 1-40; Aβ1-40 on SA chip
The experiment in a line: SPR, Fab over Aβ1-40 on SA chip.
Target sequence in this assay (peptide, as listed by the source): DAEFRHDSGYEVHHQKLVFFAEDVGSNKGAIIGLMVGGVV

Assay [2] addresses T1, biotinylated Aβ1-40 peptide. Briefly: SPR, Fab over Aβ1-40 on SA chip. Here is the method:
(§1) Affinities of 9TL Fab fragment and its variants Fab fragments were determined by Surface Plasmon Resonance (SPR) system (BIAcore 3000™, BIAcore, Inc., Piscaway, N.J.). SA chips (streptavidin) were used according to the supplier's instructions. Biotinylated Aβ peptide 1-40 was diluted into HBS-EP (10 mM HEPES pH 7.4, 150 mM NaCl, 3 mM EDTA, 0.005% P20) and injected over the chip at a concentration of 0.005 mg/mL. Using variable flow time across the individual chip channels, two ranges of antigen density were achieved: 10-200 response units (RU) for detailed kinetic studies and 500-600 RU for concentration studies and screening. […] HBS-EP buffer was used as running buffer for all the BIAcore assays. […] The concentrations of the Fab proteins were determined by ELISA and/or SDS-PAGE electrophoresis using a standard Fab of known concentration (determined by amino acid analysis). Kinetic association rates (kₒₙ) and dissociation rates (koff) were obtained simultaneously by fitting the data to a 1:1 Langmuir binding model (Karlsson, R. Roos, H. Fagerstam, L. Petersson, B. (1994). Methods Enzymology 6. 99-110) using the BIAevaluation program. Equilibrium dissociation constant (KD) values were calculated as koff/kₒₙ.
This is another data set of the same source.

Assay [3] shares this target. Briefly: SPR, Fab over Aβ1-40 on SA chip; Fab fragment; Aβ1-40 immobilized on SA chip. As for the experimental part: as §1, with “Kinetic association rates (kₒₙ) and dissociation rates (koff) were obtained simultaneously by fitting the data to a 1:1 Langmuir binding model (Karlsson, R. Roos, H. Fagerstam, L. Petersson, B. (1994). Methods Enzymology 6. 99-110) using the BIAevaluation program.” left out
All amino acid substitutions of the variants shown in Table 3 are described relative to the sequence of 9TL. KD and other kinetic parameters were determined by BIAcore analysis described above with Aβ₁₋₄₀ immobilized on SA chip.

A further assay has as its target T2, Aβ33-40 peptide.
T2 construct: also called C-terminal peptide (33-40) of Aβ1-40
T2 peptide: GLMVGGVV
Briefly: SPR peptide competition, Aβ1-40 on SA chip. As for the experimental part: (§2) To determine the epitope on Aβ polypeptide that is recognized by antibody 9TL, Surface Plasmon Resonance (SPR, Biacore 3000) binding analysis was used. Aβ₁₋₄₀ polypeptide coupled to biotin (Global Peptide Services, CO) was immobilized on a streptavidin-coated chip (SA chip). The binding of Aβ antibodies Fab fragments (at 50 nM) to the immobilized Aβ₁₋₄₀ in the absence or presence of different soluble fragments of the Aβ peptide (at […], from American Peptide Company Inc., CA). Amino acid sequences of Aβ₁₋₄₀, Aβ₁₋₄₂, and Aβ₁₋₄₃ are shown in below in Table 4. The Aβ peptides which displaced binding of antibody 9TL Fab fragment to Aβ₁₋₄₀ were Aβ₂₈₄₀, Aβ₁₋₄₀, Aβ₃₃₋₄₀, and Aβ₁₇₋₄₀, respectively (FIG. 2). Thus, antibody 9TL binds to a C-terminal peptide (33-40) of Aβ₁₋₄₀.

For a further assay, the target named is T3, Aβ17-40 peptide.
T3 peptide: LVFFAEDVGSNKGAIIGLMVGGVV
The experiment in a line: SPR peptide competition, Aβ1-40 on SA chip. Here is the method: as §2

The target of another assay is T4, Aβ1-43 peptide.
T4 construct: also called 1-43 (WT)
T4 sequence (peptide, as listed by the source): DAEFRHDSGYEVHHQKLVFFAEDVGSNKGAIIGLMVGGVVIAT
Briefly: SPR peptide competition, Aβ1-40 on SA chip. Here is the method:
as §2

A further assay addresses T5, Aβ28-40 peptide.
T5 peptide: KGAIIGLMVGGVV
Briefly: SPR peptide competition, Aβ1-40 on SA chip. Here is the method: as §2

Another assay deals with T6, Aβ28-42 peptide.
T6 peptide: KGAIIGLMVGGVVIA
Briefly: SPR peptide competition, Aβ1-40 on SA chip. As for the experimental part:
as §2

For assay [4], the target named is T1, biotinylated Aβ1-40 peptide. The experiment in a line: SPR, Fab over Aβ1-40 on SA chip; KD=koff/kon. A general note: In SPR one partner is held on a chip, and binding of the other changes the refractive index at the surface.

B1: 9TL Fab fragment (Fab, V domains shown)
VH: QVQLVQSGAEVKKPGASVKVSCKASGYYTEAYYIHWVRQAPGQGLEWMGRIDPATGNTKYAPRLQDRVTMTRDTSTSTVYMELSSLRSEDTAVYYCASLYSLPVYWGQGTTVTVSS
VL: DVVMTQSPLSLPVTLGQPASISCKSSQSLLYSDAKTYLNWFQQRPGQSPRRLIYQISRLDPGVPDRFSGSGSGTDFTLKISRVEAEDVGVYYCLQGTHYPVLFGQGTRLEIKR
notes: Fab from E. coli with human IgG2 CH1 (P01859) and human kappa constant domain (CAA09181)
The term koff denotes a measure of how fast the partners let go of each other. Higher therefore signals fast dissociation. One may read the Kd as a measure of binding affinity in units of concentration. What is called kon is the rate constant with which the complex forms. Low readings indicate slower complex formation, high ones faster complex formation. Take B1: the koff in [1] and in assay [2] was 0.000359 s⁻¹ throughout. In addition, the Kd in assay [2] and in [4] was 1.13 nM throughout. The kon in assay [2] and in assay [3] was 318000 M⁻¹ s⁻¹ throughout. Further, the binding result with Aβ33-40 peptide is on record as “binds”; with Aβ17-40 peptide, “binds”; in the assay with Aβ1-43 peptide, “no binding (tested: 10 µM (FIG. 2 legend; text prints 10 pM))”; with Aβ28-40 peptide, “binds”; with Aβ28-42 peptide, “no binding (tested: 10 µM (FIG. 2 legend; text prints 10 pM))”.
